This is an account of results in US20080233131A1.

The target of experiment [1] is cynomolgus macaque CD4 on lymphocytes / PBMC (cynomolgus macaque (Macaca fascicularis)) (UniProt P79185). The experiment in a line: flow cytometry of whole blood of TRX1-treated macaques; competitor SK3-RPE. Background: A flow cytometer gives signals particle by particle.
For experiment [2] the target is unchanged. Nature of the experiment: flow cytometry of whole blood of TRX1-immunised macaques; competitor 7E14-RPE.

Sequence of UniProt P79185 (P79185 26-458 limits assumed): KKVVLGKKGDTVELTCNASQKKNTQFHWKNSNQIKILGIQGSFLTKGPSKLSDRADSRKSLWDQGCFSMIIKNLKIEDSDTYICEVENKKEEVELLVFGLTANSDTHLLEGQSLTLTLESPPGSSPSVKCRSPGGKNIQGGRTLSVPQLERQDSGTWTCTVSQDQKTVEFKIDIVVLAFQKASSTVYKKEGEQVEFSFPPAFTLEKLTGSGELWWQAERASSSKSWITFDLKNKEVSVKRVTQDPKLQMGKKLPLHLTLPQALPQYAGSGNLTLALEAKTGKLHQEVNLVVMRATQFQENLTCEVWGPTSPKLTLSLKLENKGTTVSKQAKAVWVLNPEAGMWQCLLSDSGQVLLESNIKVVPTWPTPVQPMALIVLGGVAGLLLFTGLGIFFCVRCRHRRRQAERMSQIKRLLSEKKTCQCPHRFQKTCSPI

For “humanized anti-human CD4 monoclonal antibody TRX1”, the reduction in the MFI of SK3 staining in experiment [1] stood at 50%. This substance had a reduction in the MFI of 7E14 staining in experiment [2] of 50%.
